Two molecules from patent US20170051048A1 (ALDERBIO, published 2017) can be followed below.

As a reminder, the EC50 is the midpoint of the concentration-response curve. A lower EC50 goes with higher potency in that assay. One may read the EC50 (read off the curve) as the concentration at which the effect is half-maximal. The low end stands for an effect from little substance, the high end for a need for much substance.

The experiment concerns the target T1, Homo sapiens Beta-Nerve Growth Factor (beta-NGF) (Homo sapiens, UniProt P01138 122-241).
T1 construct: Biotinylated and held on neutravidin plates in the ELISA; also called huNGF; B-NGF
As to the kind of experiment: Antigen binding ELISA: biotinylated NGF on neutravidin plates, anti-human Fab-fragment HRP, OD 450 nm. The protocol:
To identify and characterize antibodies and Fab fragments that bind to human NGF, antibody- and Fab-containing solutions were tested by ELISA. Briefly, neutravidin coated plates (Thermo Scientific), were blocked with ELISA buffer (0.1 mg/mL BSA, 1×PBS pH 7.4, 0.002% Tween 20 and 0.005% sodium azide) for 1 hr at room temperature. The plates were then coated with a 1 µg/mL biotinylated B-NGF solution in ELISA buffer for 1 hour at room temperature. This was followed by a wash step (3× using PBS plus 0.05% Tween 20) and a second block with ELISA buffer. The recombinant antibodies or Fabs were then added onto the plates and incubated for 1 hour at room temperature and then washed 3× with PBS/Tween solution. For development, an anti-human Fc-HRP or an anti-human Fab-fragment HRP (1:5000 dilution in ELISA buffer) was added onto the wells and incubated for 45 min at RT. After a 3× wash step with PBS/Tween solution, the plate was developed using TMB substrate for 3 minutes, stopped using 0.5M HCl, and read at 450 nm.

T1 sequence (P01138 122-241): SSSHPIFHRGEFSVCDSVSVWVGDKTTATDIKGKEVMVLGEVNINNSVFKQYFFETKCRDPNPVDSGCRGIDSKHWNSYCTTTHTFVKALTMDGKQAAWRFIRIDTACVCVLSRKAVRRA

B1: Antibody fragment Fab1 (Fab, V domains shown)
VH: EVQLVESGGGLVQPGGSLRLSCAASGFTVSNYAVGWVRQAPGKGLEWVGIIGRNGNTWYASSARGRFTISRDNSKNTLYLQMNSLRAEDTAVYYCARGYGRSVAYYVFNIWGPGTLVTVSS
VL: DIQMTQSPSTLSASVGDRVTITCQASQSIYSNLAWYQQKPGKAPKLLIYDASTLESGVPSRFSGSGSGTEYTLTISSLQPDDFATYYCQQGFTVSDIDNAFGGGTKVEIKR
As to B1, a half-maximal response (EC50) required 0.4 nM and the “EC50 (read off the curve)” value is approximately 0.04 nM.

B2: Antibody fragment Fab2 (Fab, V domains shown)
VH: B1 VH
VL: B1 VL
B2: the half-maximal effective concentration (EC50) turned out to be 0.8 nM and the “EC50 (read off the curve)” value was approximately 0.08 nM.
